Article PMC10960872

Assays:
[1] = target: NanoBiT Gq: Gαq–LgBiT (wild type) co-expressed with Gβ1 and Gγ2, P50148;P62873;P59768; test: NanoBiT assay (M3-SmBiT with Gαq–LgBiT, Gβ1, Gγ2), ACh titration; conditions: titrated concentrations of acetylcholine; parent: est. -0.1 (WT 1:4, expression-matched; WT 1:1 = 0); read off a plot
[2] = target: NanoBiT Gq: Gαq–LgBiT (wild type) co-expressed with Gβ1 and Gγ2, P50148;P62873;P59768; test: NanoBiT assay (M3-SmBiT with Gαq–LgBiT, Gβ1, Gγ2), basal; conditions: absence of agonist; parent: est. 78 (WT 1:4, expression-matched; WT 1:1 = 100); read off a plot

other: ΔpEC50 [1]	percent of parent [2] [%RLU]	Substance
-0.2	46	ssHA-FLAG-M3-SmBiT (wild type), P20309 M3-6A (C-tail KKKRRK to AAAAAA)
-0.3	50	ssHA-FLAG-M3-SmBiT (wild type), P20309 M3-GS (C-tail KKKRRK to GSGSGS)
